B1: Complement factor H-related protein 5 (Homo sapiens), Q9BXR6 (parent)
chain: MLLLFSVILISWVSTVGGEGTLCDFPKIHHGFLYDEEDYNPFSQVPTGEVFYYSCEYNFVSPSKSFWTRITCTEEGWSPTPKCLRMCSFPFVKNGHSESSGLIHLEGDTVQIICNTGYSLQNNEKNISCVERGWSTPPICSFTKGECHVPILEANVDAQPKKESYKVGDVLKFSCRKNLIRVGSDSVQCYQFGWSPNFPTCKGQVRSCGPPPQLSNGEVKEIRKEEYGHNEVVEYDCNPNFIINGPKKIQCVDGEWTTLPTCVEQVKTCGYIPELEYGYVQPSVPPYQHGVSVEVNCRNEYAMIGNNMITCINGIWTELPMCVATHQLKRCKIAGVNIKTLLKLSGKEFNHNSRIRYRCSDIFRYRHSVCINGKWNPEVDCTEKREQFCPPPPQIPNAQNMTTTVNYQDGEKVAVLCKENYLLPEAKEIVCKDGRWQSLPRCVESTAYCGPPPSINNGDTTSFPLSVYPPGSTVTYRCQSFYKLQGSVTVTCRNKQWSEPPRCLDPCVVSEENMNKNNIQLKWRNDGKLYAKTGDAVEFQCKFPHKAMISSPPFRAICQEGKFEYPICE
partner: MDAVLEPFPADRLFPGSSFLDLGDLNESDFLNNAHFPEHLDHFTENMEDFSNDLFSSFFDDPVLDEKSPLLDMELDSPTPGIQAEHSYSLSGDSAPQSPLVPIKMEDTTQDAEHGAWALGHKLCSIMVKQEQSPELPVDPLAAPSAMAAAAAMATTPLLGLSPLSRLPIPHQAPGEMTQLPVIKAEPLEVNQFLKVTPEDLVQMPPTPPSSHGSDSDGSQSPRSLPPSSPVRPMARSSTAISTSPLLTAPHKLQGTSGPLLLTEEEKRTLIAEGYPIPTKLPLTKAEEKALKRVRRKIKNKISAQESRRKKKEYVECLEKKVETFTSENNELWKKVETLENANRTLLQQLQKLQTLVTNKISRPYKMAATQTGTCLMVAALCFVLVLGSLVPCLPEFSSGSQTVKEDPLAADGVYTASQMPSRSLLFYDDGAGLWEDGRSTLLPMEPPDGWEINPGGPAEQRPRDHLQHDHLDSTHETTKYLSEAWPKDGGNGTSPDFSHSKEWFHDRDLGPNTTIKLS
B2: Cytochrome P450 1A1 (Homo sapiens), P04798 (parent)
chain: MLFPISMSATEFLLASVIFCLVFWVIRASRPQVPKGLKNPPGPWGWPLIGHMLTLGKNPHLALSRMSQQYGDVLQIRIGSTPVVVLSGLDTIRQALVRQGDDFKGRPDLYTFTLISNGQSMSFSPDSGPVWAARRRLAQNGLKSFSIASDPASSTSCYLEEHVSKEAEVLISTLQELMAGPGHFNPYRYVVVSVTNVICAICFGRRYDHNHQELLSLVNLNNNFGEVVGSGNPADFIPILRYLPNPSLNAFKDLNEKFYSFMQKMVKEHYKTFEKGHIRDITDSLIEHCQEKQLDENANVQLSDEKIINIVLDLFGAGFDTVTTAISWSLMYLVMNPRVQRKIQEELDTVIGRSRRPRLSDRSHLPYMEAFILETFRHSSFVPFTIPHSTTRDTSLKGFYIPKGRCVFVNQWQINHDQKLWVNPSEFLPERFLTPDGAIDKVLSEKVIIFGMGKRKCIGETIARWEVFLFLAILLQRVEFSVPLGVKVDMTPIYGLTMKHACCEHFQMQLRS
B3: Carbonic anhydrase-related protein (Homo sapiens), P35219 (parent)
chain: MADLSFIEDTVAFPEKEEDEEEEEEGVEWGYEEGVEWGLVFPDANGEYQSPINLNSREARYDPSLLDVRLSPNYVVCRDCEVTNDGHTIQVILKSKSVLSGGPLPQGHEFELYEVRFHWGRENQRGSEHTVNFKAFPMELHLIHWNSTLFGSIDEAVGKPHGIAIIALFVQIGKEHVGLKAVTEILQDIQYKGKSKTIPCFNPNTLLPDPLLRDYWVYEGSLTIPPCSEGVTWILFRYPLTISQLQIEEFRRLRTHVKGAELVEGCDGILGDNFRPTQPLSDRVIRAAFQ
partner: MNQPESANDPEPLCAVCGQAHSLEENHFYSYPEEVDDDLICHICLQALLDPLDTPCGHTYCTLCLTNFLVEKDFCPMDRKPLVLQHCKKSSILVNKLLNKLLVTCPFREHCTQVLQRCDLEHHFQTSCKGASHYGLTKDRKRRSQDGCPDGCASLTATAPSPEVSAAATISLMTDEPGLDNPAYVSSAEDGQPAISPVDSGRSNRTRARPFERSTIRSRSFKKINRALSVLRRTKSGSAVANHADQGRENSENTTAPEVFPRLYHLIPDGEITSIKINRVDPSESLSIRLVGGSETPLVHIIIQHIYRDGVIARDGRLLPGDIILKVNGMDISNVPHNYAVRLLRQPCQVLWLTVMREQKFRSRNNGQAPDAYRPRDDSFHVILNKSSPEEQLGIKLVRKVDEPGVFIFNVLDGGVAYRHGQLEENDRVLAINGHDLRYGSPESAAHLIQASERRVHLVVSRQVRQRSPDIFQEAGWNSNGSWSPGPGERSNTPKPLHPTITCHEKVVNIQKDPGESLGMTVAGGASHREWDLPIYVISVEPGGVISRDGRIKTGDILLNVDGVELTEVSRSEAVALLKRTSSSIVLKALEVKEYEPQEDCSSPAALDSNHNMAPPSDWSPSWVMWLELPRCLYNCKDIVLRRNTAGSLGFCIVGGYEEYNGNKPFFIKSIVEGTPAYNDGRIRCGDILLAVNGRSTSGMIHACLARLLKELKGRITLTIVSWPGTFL
B4: Phakinin (Homo sapiens), Q13515 (parent)
chain: MSERRVVVDLPTSASSSMPLQRRRASFRGPRSSSSLESPPASRTNAMSGLVRAPGVYVGTAPSGCIGGLGARVTRRALGISSVFLQGLRSSGLATVPAPGLERDHGAVEDLGGCLVEYMAKVHALEQVSQELETQLRMHLESKATRSGNWGALRASWASSCQQVGEAVLENARLMLQTETIQAGADDFKERYENEQPFRKAAEEEINSLYKVIDEANLTKMDLESQIESLKEELGSLSRNYEEDVKLLHKQLAGCELEQMDAPIGTGLDDILETIRIQWERDVEKNRVEAGALLQAKQQAEVAHMSQTQEEKLAAALRVELHNTSCQVQSLQAETESLRALKRGLENTLHDAKHWHDMELQNLGAVVGRLEAELREIRAEAEQQQQERAHLLARKCQLQKDVASYHALLDREESG
partner: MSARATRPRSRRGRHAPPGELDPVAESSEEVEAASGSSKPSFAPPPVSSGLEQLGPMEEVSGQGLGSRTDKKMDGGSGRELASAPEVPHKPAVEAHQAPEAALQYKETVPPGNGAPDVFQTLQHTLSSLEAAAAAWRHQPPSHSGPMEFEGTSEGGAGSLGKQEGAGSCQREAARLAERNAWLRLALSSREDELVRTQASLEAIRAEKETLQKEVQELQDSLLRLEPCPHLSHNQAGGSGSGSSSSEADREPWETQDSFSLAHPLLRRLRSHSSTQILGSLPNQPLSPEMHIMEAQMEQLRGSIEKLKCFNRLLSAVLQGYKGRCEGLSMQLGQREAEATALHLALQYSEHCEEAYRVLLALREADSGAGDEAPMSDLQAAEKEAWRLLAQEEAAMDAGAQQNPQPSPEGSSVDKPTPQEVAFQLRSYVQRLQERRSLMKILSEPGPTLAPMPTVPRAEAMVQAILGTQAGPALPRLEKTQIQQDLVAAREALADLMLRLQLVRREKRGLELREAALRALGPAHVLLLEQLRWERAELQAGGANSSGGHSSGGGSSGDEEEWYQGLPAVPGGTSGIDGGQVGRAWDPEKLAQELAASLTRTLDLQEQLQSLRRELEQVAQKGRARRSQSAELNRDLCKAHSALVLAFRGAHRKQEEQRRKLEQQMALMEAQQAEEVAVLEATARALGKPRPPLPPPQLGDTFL
B5: DNA ligase 4 (Homo sapiens), P49917 (parent)
chain: MAASQTSQTVASHVPFADLCSTLERIQKSKGRAEKIRHFREFLDSWRKFHDALHKNHKDVTDSFYPAMRLILPQLERERMAYGIKETMLAKLYIELLNLPRDGKDALKLLNYRTPTGTHGDAGDFAMIAYFVLKPRCLQKGSLTIQQVNDLLDSIASNNSAKRKDLIKKSLLQLITQSSALEQKWLIRMIIKDLKLGVSQQTIFSVFHNDAAELHNVTTDLEKVCRQLHDPSVGLSDISITLFSAFKPMLAAIADIEHIEKDMKHQSFYIETKLDGERMQMHKDGDVYKYFSRNGYNYTDQFGASPTEGSLTPFIHNAFKADIQICILDGEMMAYNPNTQTFMQKGTKFDIKRMVEDSDLQTCYCVFDVLMVNNKKLGHETLRKRYEILSSIFTPIPGRIEIVQKTQAHTKNEVIDALNEAIDKREEGIMVKQPLSIYKPDKRGEGWLKIKPEYVSGLMDELDILIVGGYWGKGSRGGMMSHFLCAVAEKPPPGEKPSVFHTLSRVGSGCTMKELYDLGLKLAKYWKPFHRKAPPSSILCGTEKPEVYIEPCNSVIVQIKAAEIVPSDMYKTGCTLRFPRIEKIRDDKEWHECMTLDDLEQLRGKASGKLASKHLYIGGDDEPQEKKRKAAPKMKKVIGIIEHLKAPNLTNVNKISNIFEDVEFCVMSGTDSQPKPDLENRIAEFGGYIVQNPGPDTYCVIAGSENIRVKNIILSNKHDVVKPAWLLECFKTKSFVPWQPRFMIHMCPSTKEHFAREYDCYGDSYFIDTDLNQLKEVFSGIKNSNEQTPEEMASLIADLEYRYSWDCSPLSMFRRHTVYLDSYAVINDLSTKNEGTRLAIKALELRFHGAKVVSCLAEGVSHVIIGEDHSRVADFKAFRRTFKRKFKILKESWVTDSIDKCELQEENQYLI

Variants of: B1
Settings: with cr3l1_human CREB3L1, Q96BA8

effect of a mutation on the interaction	Variant
with no effect	K144N
with no effect	M514R
with no effect	G145E

Variants of: B2
Settings: with CMTM5, Q96DZ9-2
Chain of CMTM5, Q96DZ9-2 (Q96DZ9 other isoform, or with tags, fused parts or gaps): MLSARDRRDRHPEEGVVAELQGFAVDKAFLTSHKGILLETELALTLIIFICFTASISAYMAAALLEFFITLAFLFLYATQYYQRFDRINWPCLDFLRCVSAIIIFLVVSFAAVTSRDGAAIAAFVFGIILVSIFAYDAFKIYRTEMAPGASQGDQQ

effect of a mutation on the interaction	Variant
with no effect	T461N
with no effect	I462V

Variants of: B3
Settings: with lnx1_human LNX1, Q8TBB1

effect of a mutation on the interaction	Variant
disrupting interaction strength	S100P

Variants of: B4
Settings: with usbp1_human USHBP1, Q8N6Y0

effect of a mutation on the interaction	Variant
with no effect	R339H
with no effect	A407D

Variants of: B5
Settings: with xrcc4_human XRCC4, Q13426
Chain of xrcc4_human XRCC4, Q13426 (Q13426 whole entry): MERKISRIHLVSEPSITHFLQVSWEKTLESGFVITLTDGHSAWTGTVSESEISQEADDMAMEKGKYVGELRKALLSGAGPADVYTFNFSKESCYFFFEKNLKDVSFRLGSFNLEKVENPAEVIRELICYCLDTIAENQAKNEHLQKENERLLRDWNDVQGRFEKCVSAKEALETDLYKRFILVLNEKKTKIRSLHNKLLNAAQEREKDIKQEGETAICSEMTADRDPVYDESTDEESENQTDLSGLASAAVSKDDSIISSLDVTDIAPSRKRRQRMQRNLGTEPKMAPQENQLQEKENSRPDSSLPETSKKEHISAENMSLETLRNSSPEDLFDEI

effect of a mutation on the interaction	Variant
disrupting interaction strength	A3V
with no effect	T9I
